Measurements published in patent publication US20180086832A1 (Johns Hopkins, published 2018).

What was measured:
EGFR(WT)-HLA-A3 = biological target: T1, EGFR(WT)-HLA-A3 (human); assay: off-rate ELISA on monomer-coated strips, 22 C
T1 construct: also called EGFR(WT) peptide-pulsed T2A3 cells

KRAS(WT)-HLA-A3 [1] = biological target: T2, KRAS(WT)-HLA-A3 (human, biotinylated in the recombinant monomer (site not stated)); assay: flow cytometry, T2A3 cells pulsed with the KRAS(WT) control peptide
T2 construct: Monomer in ELISA; also called KRAS(WT)-HLA-A3 monomer; KRAS(WT) control peptide on T2A3 cells

KRAS(WT)-HLA-A2 [2] = biological target: T3, KRAS(WT)-HLA-A2 (human, biotinylated in the recombinant monomer (site not stated)); assay: ELISA on monomers, anti-human IgG
T3 construct: Monomer in ELISA and off-rate assays; on pulsed T2 cells in flow cytometry and CDC; also called KRAS(WT)-HLA-A2 monomer; KRAS(WT) peptide-pulsed T2 cells

KRAS(WT)-HLA-A2 [3] = biological target: T3, KRAS(WT)-HLA-A2; assay: flow cytometry, peptide-pulsed T2 cells
[4] = biological target: T4, ELA control peptide on HLA-A2 (human); assay: flow cytometry, peptide-pulsed T2 cells
T4 construct: ELA-pulsed T2 cells; also called negative HLA-A2 control peptide ELA; irrelevant peptide

KRAS(WT)-HLA-A2 [5] = biological target: T3, KRAS(WT)-HLA-A2; assay: off-rate ELISA on monomer-coated strips
KRAS(WT)-HLA-A3 [6] = biological target: T2, KRAS(WT)-HLA-A3; assay: ELISA of purified scFv on monomers, anti-Flag
KRAS(WT)-HLA-A2 [7] = biological target: T3, KRAS(WT)-HLA-A2; assay: phage ELISA after affinity maturation

B1: purified C9 scFv (scFv)
scFv: DIQMTQSPSSLSASVGDRVTITCRASQDVNTAVAWYQQKPGKAPKLLIYSASFLYSGVPSRFSGSRSGTDFTLTISSLQPEDFATYYCQQYYSYPPTFGQGTKVEIKRTGGGSGGGGSGGGASEVQLVESGGGLVQPGGSLRLSCAASGFNITSSYIHWVRQAPGKGLEWVAYISPEDGYARHADSVKGRFTISADTSKNTAYLQMNSLRAEDTAVYYCSRDDTYYYSAMDVWGQGTLVTVSS
notes: not shown: Flag and His tags
- koff (EGFR(WT)-HLA-A3): 3e-05 s⁻¹

B2: phage clone C9 (scFv, not shown: large carriers)
scFv: DIQMTQSPSSLSASVGDRVTITCRASQDVNTAVAWYQQKPGKAPKLLIYSASFLYSGVPSRFSGSRSGTDFTLTISSLQPEDFATYYCQQYYSYPPTFGQGTKVEIKRTGGGSGGGGSGGGASEVQLVESGGGLVQPGGSLRLSCAASGFNITSSYIHWVRQAPGKGLEWVAYISPEDGYARHADSVKGRFTISADTSKNTAYLQMNSLRAEDTAVYYCSRDDTYYYSAMDVWGQGTLVTVSS
notes: also called C9 phage
- binding result (KRAS(WT)-HLA-A3 [1]): no binding

B3: D10 MANAbody (antibody, V domains shown)
VH: EVQLVESGGGLVQPGGSLRLSCAASGFNINGSYIHWVRQAPGKGLEWVAYIDPETGYSRYADSVKGRFTISADTSKNTAYLQMNSLRAEDTAVYYCSRDSASDAMDVWGQGTLVTVSS
VL: DIQMTQSPSSLSASVGDRVTITCRASQDVNTAVAWYQQKPGKAPKLLIYSASFLYSGVPSRFSGSRSGTDFTLTISSLQPEDFATYYCQQYYYYPPTFGQGTKVEIK
notes: Complete bivalent antibody made in Expi293 cells; also called full-length D10 MANAbody; D10 antibody
- binding result (KRAS(WT)-HLA-A2 [2]): no binding (tested: 1 µg/mL (top of the dilution series))

B4: KRAS G12V_F10 AM#1 (scFv)
scFv: DIQMTQSPSSLSASVGDRVTITCRASQDVNTAVAWYQQKPGKAPKLLIYSASFLYSGVPSRFSGSRSGTDFTLTISSLQPEDFATYYCQQYYYYPPTFGQGTKVEIKRTGGGSGGGGSGASEVQLVESGGGLVQPGGSLRLSCAASGFNINSNYIHWVRQAPGKGLEWVAYITPETGYYHYADSVKGRFTISADTSKNTAYLQMNSLRAEDTAVYYCSRNYYSAYAMDVWGQGTLVTVSS
- binding result (KRAS(WT)-HLA-A2 [3]): no binding

B5: KRAS G12V_F10 AM#3 (scFv)
scFv: DIQMSQSPSSLSASVGDRVTITCRTSQDANTAVAWYQQKPGKAPKLLFYSASFLFSGVPSRFSGSRSGTDFTLTISSLQPEDFATYYCQQYYYYPPTFGQGTKVEIKRTGGGSGGGGSGASEVQLVESGGGLVQPGGSLRLSCAASGFNINSNYIHWVRQAPGKGLEWVAYITPETGYYRYADSVKGRFTISADTSKNTAYLQMNSLRAEDTAVYYCSRNYYSAYAMDVWGQGTLVTVSS
- binding result (KRAS(WT)-HLA-A2 [3]): no binding

B6: KRAS G12V_F10 AM#2 (scFv)
scFv: DIQMTQSPSSLSASVGDRVTITCRASQDVNTAVAWYQQKPGKAPKLLIYGASFLYSGVPSRFSGSRSGTDFTLTISSLQPEDFATYYCQQYYYYPPTFGQGTKVEIKRTGGGSGGGGSGASEVQLVESGGGLVQPGGSLRLSCAASGFYINSNYIHWVRQAPGKGLEWVAYITPETGYYHYADSVKGRFTISADTSKNTAYLQMNSLRAEDTAVYYCSRNYYSAYAMDVWGQGTLVTVSS
- binding result (KRAS(WT)-HLA-A2 [3]): no binding

B7: D3E6 phage (scFv)
scFv: DIQMTQSPSSLSASVGDRVTITCRASQDVNTAVAWYQQKPGKAPKLLIYSASFLYSGVPSRFSGSRSGTDFTLTISSLQPEDFATYYCQQYYYYPPTFGQGTKVEIKRTGGGSGGGGSGGGASEVQLVESGGGLVQPGGSLRLSCAASGFNISTSYIHWVRQAPGKGLEWVATIDPNDGYSRYADSVKGRFTISADTSKNTAYLQMNSLRAEDTAVYYCSRTNNTAADAMDVWGQGTLVTVSS
notes: also called EGFR T790M clone 1; not shown: myc tag, TEV cleavage site and full length M13 pIII coat protein
- binding result [4]: no binding

B8: purified D10-7 scFv (scFv, not shown: small tags and cut ends)
scFv: DIQMTQSPSSLSASVGDRVTIACRASQDVNTAVAWYQQKPGKAPKLLIYSASFLYSGVPSRFSGSRSGTDFTLTISSLQPEDFATYYCQQYYYYPPTFGQGTKVEIKRTGGGSGGGGSGGGASEVQLVESGGGLVQPGGSLRLSCAASGFHINGSYIHWVRQAPGKGLKWVAYIDPETGYSRYADSVKGRFAISADMSKNTAYLQMNSLRAEDTAVYYCSRDSASDAMDVWGQGTLVTVSS
notes: conjugated to an anti-V5 antibody in the CDC assay
- binding result (KRAS(WT)-HLA-A2 [5]): no binding

B9: purified D10 scFv (scFv, not shown: small tags and cut ends)
scFv: DIQMTQSPSSLSASVGDRVTITCRASQDVNTAVAWYQQKPGKAPKLLIYSASFLYSGVPSRFSGSRSGTDFTLTISSLQPEDFATYYCQQYYYYPPTFGQGTKVEIKRTGGGSGGGGSGGGASEVQLVESGGGLVQPGGSLRLSCAASGFNINGSYIHWVRQAPGKGLEWVAYIDPETGYSRYADSVKGRFTISADTSKNTAYLQMNSLRAEDTAVYYCSRDSASDAMDVWGQGTLVTVSS
notes: Flag/His form in ELISA, AlphaScreen and off-rate assays; V5/His form in cell staining and, conjugated 2:1 to an anti-V5 mouse antibody, in the CDC assay
- binding result (KRAS(WT)-HLA-A3 [6]): no binding (tested: 1 µg/mL (top of the dilution series))

B10: clone D10-7 (phage, as tested by ELISA in the affinity maturation) (scFv)
scFv: DIQMTQSPSSLSASVGDRVTIACRASQDVNTAVAWYQQKPGKAPKLLIYSASFLYSGVPSRFSGSRSGTDFTLTISSLQPEDFATYYCQQYYYYPPTFGQGTKVEIKRTGGGSGGGGSGGGASEVQLVESGGGLVQPGGSLRLSCAASGFHINGSYIHWVRQAPGKGLKWVAYIDPETGYSRYADSVKGRFAISADMSKNTAYLQMNSLRAEDTAVYYCSRDSASDAMDVWGQGTLVTVSS
notes: One of eight clones from the error-prone PCR library of D10; not shown: phage display fusion partner used at AxioMx is not described
- binding result (KRAS(WT)-HLA-A2 [7]): no binding
